Reference: patent US20080045445A1

Biological target: centromere-binding factor 1 (CBF1) (human) (UniProt Q06330)
Test: cell-based or functional assay

Chain of centromere-binding factor 1 (CBF1) (human) (Q06330 whole entry): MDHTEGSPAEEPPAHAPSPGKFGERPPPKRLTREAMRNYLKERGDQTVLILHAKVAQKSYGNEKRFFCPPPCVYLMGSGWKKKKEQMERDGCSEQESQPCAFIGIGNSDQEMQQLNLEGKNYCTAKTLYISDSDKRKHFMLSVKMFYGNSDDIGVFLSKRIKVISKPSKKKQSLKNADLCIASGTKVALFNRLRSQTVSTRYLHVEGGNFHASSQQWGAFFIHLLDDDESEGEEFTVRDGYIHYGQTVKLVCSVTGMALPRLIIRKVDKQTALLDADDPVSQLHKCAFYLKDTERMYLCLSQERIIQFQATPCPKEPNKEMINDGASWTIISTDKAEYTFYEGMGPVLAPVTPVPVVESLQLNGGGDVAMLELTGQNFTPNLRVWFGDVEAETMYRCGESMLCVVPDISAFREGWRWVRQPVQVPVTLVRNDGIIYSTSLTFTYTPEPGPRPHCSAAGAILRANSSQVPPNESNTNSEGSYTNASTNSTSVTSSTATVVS

luciferase activity (CBF1 binding site reporter, wild-type/mutant, relative to beta-galactosidase): 5 fold
Substance: Notch1 intracellular domain (NICD) (from UniProt P46531 1754-2555) (receptor)
